Test results: article PMC10438374, “FAN1 removes triplet repeat extrusions via a PCNA- and RFC-dependent mechanism” (Proceedings of the National Academy of Sciences of the …, 2023)

Target: T1, MutLα (MLH1/PMS2 heterodimer), recombinant human (human, UniProt P40692 1-756; P54278 1-862)
T1 construct: MLH1 subunit of human MutLα; PMS2 subunit of human MutLα; Heterodimer; source: recombinant (details in SI Appendix)
Test: far-Western, overlay or dot blot; far-western analysis of FAN1 and MutLα (SI Appendix, Fig. S4E); which protein was spotted is not told in the main text
Settings: both partners purified

binding result: binds
B1: FAN1 (FANCD2 and FANCI-associated nuclease 1), recombinant full-length human (enzyme, UniProt Q9Y2M0 1-1017, looked up)
chain: MMSEGKPPDKKRPRRSLSISKNKKKASNSIISCFNNAPPAKLACPVCSKMVPRYDLNRHLDEMCANNDFVQVDPGQVGLINSNVSMVDLTSVTLEDVTPKKSPPPKTNLTPGQSDSAKREVKQKISPYFKSNDVVCKNQDELRNRSVKVICLGSLASKLSRKYVKAKKSIDKDEEFAGSSPQSSKSTVVKSLIDNSSEIEDEDQILENSSQKENVFKCDSLKEECIPEHMVRGSKIMEAESQKATRECEKSALTPGFSDNAIMLFSPDFTLRNTLKSTSEDSLVKQECIKEVVEKREACHCEEVKMTVASEAKIQLSDSEAKSHSSADDASAWSNIQEAPLQDDSCLNNDIPHSIPLEQGSSCNGPGQTTGHPYYLRSFLVVLKTVLENEDDMLLFDEQEKGIVTKFYQLSATGQKLYVRLFQRKLSWIKMTKLEYEEIALDLTPVIEELTNAGFLQTESELQELSEVLELLSAPELKSLAKTFHLVNPNGQKQQLVDAFLKLAKQRSVCTWGKNKPGIGAVILKRAKALAGQSVRICKGPRAVFSRILLLFSLTDSMEDEDAACGGQGQLSTVLLVNLGRMEFPSYTINRKTHIFQDRDDLIRYAAATHMLSDISSAMANGNWEEAKELAQCAKRDWNRLKNHPSLRCHEDLPLFLRCFTVGWIYTRILSRFVEILQRLHMYEEAVRELESLLSQRIYCPDSRGRWWDRLALNLHQHLKRLEPTIKCITEGLADPEVRTGHRLSLYQRAVRLRESPSCKKFKHLFQQLPEMAVQDVKHVTITGRLCPQRGMCKSVFVMEAGEAADPTTVLCSVEELALAHYRRSGFDQGIHGEGSTFSTLYGLLLWDIIFMDGIPDVFRNACQAFPLDLCTDSFFTSRRPALEARLQLIHDAPEESLRAWVAATWHEQEGRVASLVSWDRFTSLQQAQDLVSCLGGPVLSGVCRHLAADFRHCRGGLPDLVVWNSQSRHFKLVEVKGPNDRLSHKQMIWLAELQKLGAEVEVCHVVAVGAKSQSLS
notes: FAN1 (FANCD2 and FANCI-associated nuclease 1), human, full length; also called FAN1 nuclease; source: recombinant; prepared as per previously established procedures (details in SI Appendix)
